Experimental data taken from US20160075781A1 (IMMUNOGEN, published 2016).

Columns and labels:
human folate receptor 1 [1] = molecular target: T1, human folate receptor 1 (human, UniProt P15328 25-234); assay: flow cytometry on FOLR1-expressing SKOV3 cells; apparent Kd from the fit of MFI against antibody concentration
T1 construct: also called FOLR1; Folate Receptor-alpha
Experimental: Binding affinities of anti-FOLR1 antibodies and of their SPDB-DM4, PEG4Mal-DM4, SMCC-DM1, or anti-FOLR1-sulfo-SPDB-DM4 conjugates were assayed by Flow Cytometry. FOLR1-expressing SKOV3 cells were incubated with varying concentrations of anti-FOLR1 antibodies or their conjugates and processed as described above for flow cytometry analysis. Data analysis was performed using CellQuest Pro (BD Biosciences, San Diego, US) and for each sample the mean fluorescence intensity for FL1 (MFI) was exported and plotted against the antibody concentration in a semi-log plot. A dose-response curve was generated by non-linear regression and the value for the apparent equilibrium dissociation constant (Kd) of the test-samples for the binding to SKOV3 cells was calculated using GraphPad Prism v4 (GraphPad software, San Diego, Calif.) and presented in FIG. 5.

human folate receptor 1 [2] = molecular target: T1, human folate receptor 1; assay: apparent affinity, flow cytometry on FOLR1-expressing cells ('as described above'; cell line not named in Example 19, SKOV3 in Example 13)
human folate receptor 1 [3] = molecular target: T1, human folate receptor 1; assay: cell-based or functional assay

T1 sequence (P15328 25-234 limits assumed): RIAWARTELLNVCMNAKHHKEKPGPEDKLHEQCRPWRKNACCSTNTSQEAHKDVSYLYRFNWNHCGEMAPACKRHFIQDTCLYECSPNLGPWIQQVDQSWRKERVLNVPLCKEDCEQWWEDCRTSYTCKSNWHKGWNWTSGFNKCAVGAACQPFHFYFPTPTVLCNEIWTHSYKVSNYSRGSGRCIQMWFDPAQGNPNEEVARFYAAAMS

Kd (human folate receptor 1 [1]) [nM]	Kd (human folate receptor 1 [2]) [nM]	Binder	IC50, cytotoxic activity of the PEG4-mal-DM4 conjugate on KB cells, continuous exposure (WST-8 survival) (human folate receptor 1 [3]) [nM]
0.66	–	muFR1-13 (antibody, V domains shown) VH: QVQLKESGPDLVAPSQSLSITCTVSGFSLSRYSVHWIRQPPGKGLEWLGMIWSGGNTDYNSVFKSRLNITKDNSKSQVFLKMNSLQTDDTAIYYCATFDGKVSWFAYWGQGTLVTVSA VL: SIVMTQTPKFLLVSTGDRFTITCKASQSVSNDVLWYQQKPGQSPKLLIYYAYNRYSGVPDRFTGSGYGTDFTFTITTVQSEDLAVYFCQQDHSSPFTFGSGTKLEIKR	–
–	0.15	huFR1-65 (antibody, human IgG1, kappa, V domains shown) VH: QVQLVQSGAEVAKPGASVKMSCKASGYTFTSYTMHWVKQRPGQGLAWIGYINPISGYTNYNQKFQGKATLTADKSSSTAYMQLNSLTSEDSAVYYCASGGAYGRKPMDYWGQGTSVTVSS VL: EIVMTQSPATMSTSPGDRVSVTCKASQNVGPNVAWYQQKPGQSPRALIYSASYRYSGVPARFTGSGSGTDFTLTISNMQSEDLAEYFCQQYNSYPYTFGQGTKLEIKR	–
–	0.08	huFR1-49 (antibody, human IgG1, kappa, V domains shown) VH: QVQLQQSGAVVAKPGASVKMSCKASGYTFTNYWMYWIKQRPGQGLELIGAIYPGNSDTTYNQKFQGKATLTAVTSANTVYMEVSSLTSEDSAVYYCTKRHDYGAMDYWGQGTSVTVSS VL: DIQMTQSPSSLSVSVGERVTITCRASENIYTNLAWYQQKPGKSPKLLVYTASNLADGVPSRFSGSGSGTDYSLKINSLQPEDFGTYYCQHFWVSPYTFGQGTKLEIKR	–
0.07	–	muFR1-21 (antibody, mouse IgG2b, kappa, V domains shown, murine anti-FOLR1 antibody; also called murine FR1-21) VH: EVKLVESGGDLVKPGGSLKLSCAASGFTFSSYGMSWVRQTPDKRLECVATISSGGSYTYYPDGVKGRFTISRDNAKNTLYLQMSSLKSEDTAMYYCARDGEGGLYAMDYWGQGTSVTVSS VL: DIQMTQSSSYLSVSLGGRVTITCKASDHINNWLAWYQQKPGNAPRLLISGATSLETGVPSRFSGSGSGKDYTLSISSLQTEDVATYYCQQYWSTPFTFGSGTKLEIKR	–
0.07	0.06	huMov19 (antibody, V domains shown, Resurfaced humanized Mov19, full IgG1/kappa; also called humanized Mov19) VH: QVQLVQSGAEVVKPGASVKISCKASGYTFTGYFMNWVKQSPGQSLEWIGRIHPYDGDTFYNQKFQGKATLTVDKSSNTAHMELLSLTSEDFAVYYCTRYDGSRAMDYWGQGTTVTVSS VL: DIVLTQSPLSLAVSLGQPAIISCKASQSVSFAGTSLMHWYHQKPGQQPRLLIYRASNLEAGVPDRFSGSGSKTDFTLNISPVEAEDAATYYCQQSREYPYTFGGGTKLEIKR	–

The remaining lines, values behind:

Binder	Kd (human folate receptor 1 [1]) [nM]	Kd (human folate receptor 1 [2]) [nM]	IC50, cytotoxic activity of the PEG4-mal-DM4 conjugate on KB cells, continuous exposure (WST-8 survival) (human folate receptor 1 [3]) [nM]
huFR1-48 (antibody, human IgG1, kappa, V domains shown) VH: QVQLVQSGAEVAKPGASVKLSCKASGYTFTNYWMQWIKQRPGQGLEWIGAIYPGNGDSRYTQKFQGKATLTADKSSSTAYMQVSSLTSEDSAVYYCARRDGNYAAYWGQGTLVTVSA VL: DIQMTQSPSSLSVSVGERVTITCRASENIYSNLAWYQQKPGKSPKLLVYAATNLADGVPSRFSGSESGTDYSLKINSLQPEDFGSYYCQHFWASPYTFGQGTKLEIKR	–	0.13	–
huFR1-57 (antibody, human IgG1, kappa, V domains shown) VH: EVQLVESGGGLVQPGGSRRLSCAASGFTFSSFGMHWVRQAPGKGLEWVAYISSGSSTISYADSVKGRFTISRDNSKKTLLLQMTSLRAEDTAMYYCAREAYGSSMEYWGQGTLVTVSS VL: EIVLTQSPATLSVTPGDRVSLSCRASQNINNNLHWYQQKPGQSPRLLIKYVSQSVSGIPDRFSGSGSGTDFTLSISSVEPEDFGMYFCQQSNSWPHYTFGQGTKLEIKR	–	0.14	–
muFR1-21 PEG4-mal-DM4 conjugate (antibody, mouse IgG2b, kappa, V domains shown, DM4 linked through PEG4-mal; sites not given) VH: EVKLVESGGDLVKPGGSLKLSCAASGFTFSSYGMSWVRQTPDKRLECVATISSGGSYTYYPDGVKGRFTISRDNAKNTLYLQMSSLKSEDTAMYYCARDGEGGLYAMDYWGQGTSVTVSS VL: DIQMTQSSSYLSVSLGGRVTITCKASDHINNWLAWYQQKPGNAPRLLISGATSLETGVPSRFSGSGSGKDYTLSISSLQTEDVATYYCQQYWSTPFTFGSGTKLEIKR	–	–	0.1
huFR1-21-PEG4-mal-DM4 (antibody, human IgG1, kappa, V domains shown, maytansinoid DM4 attached through the PEG4-mal linker; residues and chain not stated) VH: EVQLVESGGDVVKPGGSLKLSCAASGFTFSSYGMSWVRQTPGKGLECVATISSGGSYTYYSPGFQGRFTISRDKSKNTLYLQMSSLKAEDTAMYYCARDGEGGLYAMDYWGQGTSVTVSS VL: DIQMTQSSSSLSVSVGGRVTITCKASDHINNWLAWYQQKPGKAPKLLISGATSLETGVPSRFSGSGSGKDYTLSISSLQPEDVATYYCQQYWSTPFTFGQGTKLEIKR	–	–	0.1
huFR1-21 (antibody, human IgG1, kappa, V domains shown, unconjugated humanized FR1-21; also called humanized FR1-21) VH: EVQLVESGGDVVKPGGSLKLSCAASGFTFSSYGMSWVRQTPGKGLECVATISSGGSYTYYSPGFQGRFTISRDKSKNTLYLQMSSLKAEDTAMYYCARDGEGGLYAMDYWGQGTSVTVSS VL: DIQMTQSSSSLSVSVGGRVTITCKASDHINNWLAWYQQKPGKAPKLLISGATSLETGVPSRFSGSGSGKDYTLSISSLQPEDVATYYCQQYWSTPFTFGQGTKLEIKR	0.07	–	–
muFR1-9 (antibody, V domains shown) VH: QVQLVESGGGLVQPGGSRKLSCAASGFTFSSFGMHWVRQAPEKGLEWVAYISSGSSTFYYADTVKGRFTISRDNPKNTLFLQMTSLRSEDTAMYYCAKELTGTFAYWGQGTLVTVSA VL: DIVLTQSPATLSVTPGDSVSLSCRASQSINNNLHWYQQKSHESPRLLIKYASQSISGIPSRFSGSGSGTDFTLSINSVETEDFGMYFCQQSNSWPQVTFGAGTKLELKR	0.13	–	–
huMov19-PEG4-mal-DM4 (antibody, V domains shown, maytansinoid DM4 attached through the PEG4-mal linker; residues and chain not stated) VH: QVQLVQSGAEVVKPGASVKISCKASGYTFTGYFMNWVKQSPGQSLEWIGRIHPYDGDTFYNQKFQGKATLTVDKSSNTAHMELLSLTSEDFAVYYCTRYDGSRAMDYWGQGTTVTVSS VL: DIVLTQSPLSLAVSLGQPAIISCKASQSVSFAGTSLMHWYHQKPGQQPRLLIYRASNLEAGVPDRFSGSGSKTDFTLNISPVEAEDAATYYCQQSREYPYTFGGGTKLEIKR	–	–	0.15
